# From paper PMC11796359, “Identification and characterization of the functional tetrameric UDP-glucose pyrophosphorylase from Klebsiella pneumoniae” (mBio, 2024)
# Substitutions are numbered along the chain they refer to. Numbers in names are those of the source.
# B1: Klebsiella pneumoniae UDP-glucose pyrophosphorylase (galU gene product), wild type (enzyme, UniProt A6TAK9 1-300, looked up)
# chain: MAALNSKVRKAVIPVAGLGTRMLPATKAIPKEMLPLVDKPLIQYVVNECIAAGITEIVLVTHSSKNSIENHFDTSFELEAMLEKRVKRQLLEEVQSICPPHVTIMQVRQGLAKGLGHAVLCAHPVVGDEPVAVILPDVILDEYESDLSRDNLAEMISRFDETGASQIMVEPVEDVTAYGVVDCKGESLKPGESVPMVGVVEKPKADVAPSNLAVVGRYVLSADIWPLLAKTPPGAGDEIQLTDAIDMLIEKETVEAYHMKGKSHDCGNKLGYMQAFVEYGIRHKTLGDDFKAWLETAVAK
# notes: UDP-glucose pyrophosphorylase (galU gene product) of K. pneumoniae subsp. pneumoniae type strain DSM 30104 (ATCC 13883, NCTC 9633), cloned from genomic DNA; UniProt entry printed for the AlphaFold query; 34.6 kDa with tag; no cleavage of the tag is described; Also made from pETDuet-1 with the same oligomeric state; also called KpUGP; KpUGP wt; not shown: Strep-tagII, N-terminal, kept
# B2: KpUGP E69A (enzyme)
# chain: B1 chain with E69A
# notes: UDP-glucose pyrophosphorylase (galU gene product) of K. pneumoniae DSM 30104; mutant of Strep-KpUGP; tag as in m1; no cleavage described
# B3: KpUGP E69D (enzyme)
# chain: B1 chain with E69D
# notes: as for B2
# B4: KpUGP D73A (enzyme)
# chain: B1 chain with D73A
# notes: UDP-glucose pyrophosphorylase (galU gene product) of K. pneumoniae DSM 30104; mutant of Strep-KpUGP; tag as in m1; no cleavage described; dissociates progressively during storage on ice
# B5: KpUGP D73N (enzyme)
# chain: B1 chain with D73N
# notes: as for B2
# B6: KpUGP E77A (enzyme)
# chain: B1 chain with E77A
# notes: as for B2
# B7: KpUGP E77Q (enzyme)
# chain: B1 chain with E77Q
# notes: as for B2
# B8: KpUGP R108A (enzyme)
# chain: B1 chain with R108A
# notes: as for B2
# B9: KpUGP R108K (enzyme)
# chain: B1 chain with R108K
# notes: UDP-glucose pyrophosphorylase (galU gene product) of K. pneumoniae DSM 30104; mutant of Strep-KpUGP; tag as in m1; no cleavage described; also called R108R (as printed once in the text)
# B10: KpUGP E238A (enzyme)
# chain: B1 chain with E238A
# notes: as for B2
# B11: KpUGP E238Q (enzyme)
# chain: B1 chain with E238Q
# notes: as for B2
# B12: KpUGP K10A (enzyme)
# chain: B1 chain with K10A
# notes: as for B2
# B13: KpUGP F276A (enzyme)
# chain: B1 chain with F276A
# notes: as for B2
# B14: KpUGP F276H (enzyme)
# chain: B1 chain with F276H
# notes: as for B2
# B15: KpUGP K10R (enzyme)
# chain: B1 chain with K10R
# notes: as for B2
# B16: KpUGP D38A (enzyme)
# chain: B1 chain with D38A
# notes: as for B2
# B17: KpUGP D38N (enzyme)
# chain: B1 chain with D38N
# notes: as for B2
# B18: KpUGP K27A (enzyme)
# chain: B1 chain with K27A
# notes: as for B2
# B19: KpUGP K27Q (enzyme)
# chain: B1 chain with K27Q
# notes: UDP-glucose pyrophosphorylase (galU gene product) of K. pneumoniae DSM 30104; mutant of Strep-KpUGP; tag as in m1; no cleavage described; eluted predominantly as dimers
# B20: KpUGP K65A (enzyme)
# chain: B1 chain with K65A
# notes: as for B2
# B21: KpUGP K65R (enzyme)
# chain: B1 chain with K65R
# notes: as for B2
# B22: KpUGP E32A (enzyme)
# chain: B1 chain with E32A
# notes: UDP-glucose pyrophosphorylase (galU gene product) of K. pneumoniae DSM 30104; active site mutant of Strep-KpUGP; tag as in m1; the discussion speaks only of the mutant of E32; also called E32 mutant
# B23: KpUGP E238R (enzyme)
# chain: B1 chain with E238R
# notes: UDP-glucose pyrophosphorylase (galU gene product) of K. pneumoniae DSM 30104; mutant of Strep-KpUGP that mimics R237 of KpGalF; tag as in m1; no cleavage described
# B24: Klebsiella pneumoniae GalF (galF gene product), wild type (natural protein, UniProt Q48447 1-298, looked up)
# chain: MNMANLKAVIPVAGLGMHMLPATKAIPKEMLPIVDKPMIQYIVDEIVAAGIKEIVLVTHSSKNAVENHFDTSYELEALLEQRVKRQLLAEVQAICPPGVTIMNVRQAQPLGLGHSILCARPVVGDNPFVVVLPDIILDGGTADPLRYNLAAMIARFNETGRSQVLAKRMPGDLSEYSVIQTKEPMVAEGQVARIVEFIEKPDEPQTLDSDLMAVGRYVLSADIWAELERTEPGAWGRIQLTDAIAELAKKQSVDAMLMTGESYDCGKKMGYMQAFVTYGMRNLKEGAKFRESIKKLLA
# notes: GalF (galF gene product) of K. pneumoniae subsp. pneumoniae type strain DSM 30104 (ATCC 13883, NCTC 9633), cloned from genomic DNA into MCS1 of pETDuet-1; UniProt entry printed for the AlphaFold query; 34.3 kDa with tag; no cleavage of the tag is described; also called KpGalF; KpGalF wt
# B25: KpGalF M17T/H18R/S115A/S177G/R237E (natural protein)
# chain: B24 chain with M17T, H18R, S115A, S177G, R237E
# notes: GalF (galF gene product) of K. pneumoniae DSM 30104; mutant of His-KpGalF; also called KpGalF quintuple mutant; quintuple revertant mutant
# Target: the molecule itself
# Assay: SEC; Superose 6 Increase 10/300 GL; 50 mM Tris-HCl (pH 8.0), 300 mM NaCl, 10 mM MgCl2; oligomeric state calculated from elution volumes of proteins of known size
row,Protein,stoichiometry N
1,B1,4.5
2,B2,4.4
3,B3,4.6
4,B4,2.7
5,B5,2.4
6,B6,4.5
7,B7,4.6
8,B8,2.2
9,B9,2.4
10,B10,4.4
11,B11,4.4
12,B12,3.1
13,B13,4.6
14,B14,4.5
15,B15,4.5
16,B16,4.1
17,B17,4.2
18,B18,2.1
19,B19,2.2
20,B20,2
21,B21,2.4

# Target: the molecule itself
# Assay: SEC; Superdex 200 10/300 GL (KpUGP active site mutants); 50 mM Tris-HCl (pH 8.0), 300 mM NaCl, 10 mM MgCl2
row,Protein,stoichiometry N
1,B22,2

# Target: the molecule itself
# Assay: not stated; data not shown; KpUGP in HEPES-NaOH (pH 8.0) buffer
row,Protein,stoichiometry N
1,B1,4

# Target: the molecule itself
# Assay: SEC; Superose 6 Increase 10/300 GL; 50 mM Tris-HCl (pH 8.0), 300 mM NaCl, 10 mM MgCl2; oligomeric state calculated from elution volumes of proteins of known size
# Remark: another data set of the same source
row,Protein,stoichiometry N
1,B23,3.1
2,B24,1.9
3,B25,1.7

# Target: the molecule itself
# Assay: native gel or EMSA; blue native PAGE, 4.5 µg of each protein on a uniform 12% native gel, followed by in-gel activity staining
row,Protein,stoichiometry N
1,B2,4
2,B3,4
3,B6,4
4,B7,4
5,B10,4
6,B11,4
7,B13,4
8,B14,4
9,B15,4
10,B16,4
11,B17,4
